Data as given in patent US20200369766A1 (LEIDOS, published 2020).
Where “and” joins values, the source holds several entries; their conditions need not be identical. Identical values can stand only once.

T1: human LAG3 expressed on Jurkat T cell line (human, UniProt P18627 23-525)
T1 sequence (looked up): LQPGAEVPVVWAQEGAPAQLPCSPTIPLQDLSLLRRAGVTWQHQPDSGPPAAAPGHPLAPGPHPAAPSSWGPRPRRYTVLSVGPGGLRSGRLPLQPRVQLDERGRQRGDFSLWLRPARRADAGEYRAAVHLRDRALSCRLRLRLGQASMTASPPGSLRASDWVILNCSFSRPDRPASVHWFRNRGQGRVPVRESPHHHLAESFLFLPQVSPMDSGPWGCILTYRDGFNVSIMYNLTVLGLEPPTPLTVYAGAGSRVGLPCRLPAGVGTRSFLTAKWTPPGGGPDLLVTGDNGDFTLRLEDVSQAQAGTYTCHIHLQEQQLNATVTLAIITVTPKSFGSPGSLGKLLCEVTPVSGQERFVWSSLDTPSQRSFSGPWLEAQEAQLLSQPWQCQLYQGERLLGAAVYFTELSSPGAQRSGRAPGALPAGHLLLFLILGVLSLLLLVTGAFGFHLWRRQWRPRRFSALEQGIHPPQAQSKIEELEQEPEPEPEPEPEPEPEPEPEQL


Legend:
[1] = biological target: T1, human LAG3 expressed on Jurkat T cell …; assay: cell-based or functional assay
[2] = biological target: Tag1-LAG3; assay: HTRF LAG3/MHC-II; peptide log M -10.6227
[3] = biological target: Tag1-LAG3; assay: HTRF LAG3/MHC-II; peptide log M -6.40824
[4] = biological target: Tag1-LAG3; assay: HTRF LAG3/MHC-II; peptide log M -5.20412
[5] = biological target: Tag1-LAG3; assay: HTRF LAG3/MHC-II; peptide log M -7.61236
[6] = biological target: Tag1-LAG3; assay: HTRF LAG3/MHC-II; peptide log M -7.0103
[7] = biological target: Tag1-LAG3; assay: HTRF LAG3/MHC-II; peptide log M -9.41854
[8] = biological target: Tag1-LAG3; assay: HTRF LAG3/MHC-II; peptide log M -4.60206
[9] = biological target: Tag1-LAG3; assay: HTRF LAG3/MHC-II; peptide log M -8.21442
[10] = biological target: Tag1-LAG3; assay: HTRF LAG3/MHC-II; peptide log M -10.0206
[11] = biological target: Tag1-LAG3; assay: HTRF LAG3/MHC-II; peptide log M -8.81648
[12] = biological target: Tag1-LAG3; assay: HTRF LAG3/MHC-II; peptide log M -5.80618
[13] = biological target: Tag1-LAG3; assay: HTRF LAG3/MHC-II; peptide log M -4

fold inhibition (fold increase in luciferase activity, RLUs at 100 µM against 0.64 µM) [1] [fold] | HTRF ratio [2] | HTRF ratio [3] | HTRF ratio [4] | HTRF ratio [5] | HTRF ratio [6] | HTRF ratio [7] | HTRF ratio [8] | HTRF ratio [9] | HTRF ratio [10] | HTRF ratio [11] | HTRF ratio [12] | HTRF ratio [13] | Binder
~2.8 |  |  |  |  |  |  |  |  |  |  |  |  | SAPWEPLHWPEDWWQGTGEW [LAG3-11]
~2.2 |  |  |  |  |  |  |  |  |  |  |  |  | HIQNWSYWLNQDMMNQQVWKS [LAG3-56]
 | 9090 and 8890 and 8630 | 8630 and 9280 and 9190 | 8620 and 8580 and 9020 | 8780 and 8570 and 9020 | 8970 and 8380 and 8650 | 8400 and 8790 and 8620 | 8470 and 8680 and 8450 | 8620 and 8990 and 9220 | 8990 and 8460 and 8360 | 8720 and 8640 and 8680 | 8830 and 9370 and 9180 | 8490 and 8910 and 7150 | ISQAVHAAHAEINEAGR [ovalbumin (OVA) peptide]
